# Measured values taken from patent publication US20240124857A1, “COMPOSITION FOR GUT HEALTH” (DUPONT NUTRITION BIOSCIENCES APS, priority 2021, published 2024).
# Experiments:
# Format in all cases: biochemical
# [1] = ATPase activity at 0.05 ppm enzyme on 0.1 mM ATP (absorbance 620 nm); conditions: for Activity on ATP (absorbance at 620 nm, blank subtracted), pH 5.0: 50 mM IVIES buffer pH 5; for Activity on ATP (absorbance at 620 nm, blank subtracted), pH 6.0: 50 mM IVIES buffer pH 6
# Description: Enzyme activity towards ATP or ADP at pH 3 to 9: The ability of candidate enzymes to degrade ATP or ADP to AMP and free phosphate (Pi) was measured using a standard malachite green phosphate detection kit (Sigma Aldrich cat no. MAK307). The enzyme reactions were carried out in 96-well plates with a total volume of 150 μL and contained 250 μM of a substrate, 50 mM of a buffer, 5 mM CaCl2, and a variable concentration of enzyme. The substrate was ATP or ADP. The buffer was glycine (pH 3), acetate (pH 4, 4.5, 5), bis-Tris (pH 5.5, 6, 6.5), or Tris (pH 7, 8, 9). The concentration of enzyme varied from about 1 μg/mL to 1 ng/mL and was adjusted based on the activity of the enzyme so that the amount of phosphate released during the assay was with the dynamic range of the assay (5-100 μM phosphate). The enzyme concentration was determined by the absorbance at 280 nm and using the predicted molecular weight and molar extinction coefficient to calculate the concentration. The enzyme reaction was initiated by the addition of 15 μL enzyme with 135 μL of the other reaction components such that the final reaction composition was as previously described. The reaction was stopped after 5 min by mixing 80 μL of the reaction mixture with 20 μL of the malachite green working reagent. The malachite green working reagent was prepared according to the manufacturer's protocol by mixing 100 parts reagent A with 1 part reagent B. Phosphate standard solutions (0-80 μM) and a negative control reaction without enzyme were also mixed with the malachite green working reagent. All samples were tested in duplicate. The malachite green reaction mixture was allowed to rest at room temperature for 45-60 min and the absorbance at 620 nm was measured. Lastly, the absorbance of the phosphate standards were used to convert the absorbance readings of each sample into phosphate concentrations and the negative control was subtracted from each reaction.
# Enzymes of interest were assayed against ATP substrate. The ATPase activity was measured at 0.05 ppm concentration in 50 mM IVIES buffer pH 6 and pH 5 with 0.1 mM ATP as substrate as described in Example 1. Commercial potato apyrase was used as reference. The absorbance at 620 nm was measured and the absorbance of a blank sample (water) was subtracted from each sample.
# [2] = pH profile of enzymes on 1 mM ATP; conditions: 50 mM trisodium citrate/citric acid, 5 mM CaCl2, relative to the highest value
# Description: The pH profile of additional enzymes of interest was assayed using 1 mM ATP, in 50 mM trisodium citrate/citric acid buffer with 5 mM CaCl2. Absorbance was read at 620 nm and all values were set relative to the highest one. Commercial potato apyrase was used as reference. […]
# [3] = Relative activity on ATP of CRC22110 single-site variants; conditions: in comparison to CRC22110 wild type
Molecule,"Activity on ATP (absorbance at 620 nm, blank subtracted), pH 5.0 [1]","Activity on ATP (absorbance at 620 nm, blank subtracted), pH 6.0 [1]","Relative activity on ATP, pH 3 [2]","Relative activity on ATP, pH 3.5 [2]","Relative activity on ATP, pH 4 [2]","Relative activity on ATP, pH 4.5 [2]","Relative activity on ATP, pH 5 [2]","Relative activity on ATP, pH 5.5 [2]","Relative activity on ATP, pH 6 [2]","Relative activity on ATP, pH 6.5 [2]",Relative activity (%) on ATP [3]
"CRC25089: Acid phosphatase (Class A), accession WP_217352265.1, SEQ ID NO:22 (protein, listed as Paraburkholderia bonniea) AGSDGFLTAETAPSSLAILPPPPAENTVAFLNDKANYEIGRSLKNDARVALAASDANCKNINAIFSSAFGREISEEKTPKLYRLLLGVLQDSHDHAMKSAKNHYMRVRPFVMYGDKTCTPEEDNKMKNTGSYPSGHASFGWAAALVLSEINPERTTEILRRGYDFGQSRVVCGAHWQSDVDNGRLMGAAVVADLHNNDKFIKALEAAKAEFKENTPGN",0.24,0.05,0.8,1.0,0.9,0.9,0.8,0.7,0.3,0.2,–
"CRC25085: Acid phosphatase (Class A), accession WP_092747651.1, SEQ ID NO:21 (protein, listed as Acinetobacter boissieri) LEQSNSFLQLAQVPDSLAIVPAPPAYNSVDFLRDKAAYDQAKSLVGTERWKVAAEDADLSDANIGKPFSQALGIEISPQNTPITYEILRKLRTDAGNYATKAAKEHYMRLRPFMFFNSHTCTPNDEANLSKNGAYPSGHTTIGWSSALVLAEIRPERQNEILQRGYEYGQSRVICGVHWQSDVDAGRITGSAIVARLHADKAFTKMLEEAKQEIQRKTK",0.23,0.20,0.5,0.6,0.8,0.9,0.9,1.0,0.8,0.9,–
"CRC25084: Acid phosphatase (Class A), accession WP_088823167.1, SEQ ID NO:20 (protein, listed as Acinetobacter apis) ADSNNSFLQLNQVPDSLKIVPAPPAFNSVDFLRDKAAYDQARSLVGTARWQQAAVDADLSDANIGKSFSEAFGVEISPTNTPVTYEILRKLRTDAGGYATKTAKEHYMRMRPFVFFNSHTCTPNDEASLSKNGAYPSGHTTIGWSSALILAEIRPDRQNEILERGYQYGQSRVICGVHWQSDVDAGRITGSAIVARLHADKDFAKTLEDAKREIQKKIK",0.20,0.17,0.4,0.6,0.6,0.9,0.9,1.0,1.0,0.9,–
"CRC25099: Acid phosphatase (Class A), accession WP_195761705.1, SEQ ID NO:23 (protein, listed as Pantoea sp.) LQSSGFLTAETAPDSLAILPPPPAENSVTFQSDKAQYEAGHVLRNVARTELASKDADYKNFGQAFSAAFGMEISESHTPVLYHLLSEVLQDSHDFAMRGAKDHYKRVRPFVIYKDSTCTPDKDKSMSTTGSYPSGHASFGWAAALILAEINPSRETEIIRRGYDFGESRVVCGAHWQSDVENGRIMGATVVASLHANAKFAELLSQAKNEFATLSAQDSK",1.05,0.93,0.0,0.1,0.3,0.7,0.8,1.0,0.8,0.5,–
"CRC22110v8: single-site variant F205A of CRC22110 (SEQ ID NO: 9) (protein, listed as Gallaecimonas xiamenensis) ADKPACRAVFDAGSSGTRLFLYVQQEGGWQPWPGAKLGALADPVRQHQGPKAMAALAADLANSLEALRQDGPTNSEGQPRWQGFDWQQACRLQSVSVLATAGMRLAEQQDPVASVALWQEVQQALAGLLGPAVAIDARTLTGFEEGFYAWLAARARLGRSDMGIVEMGGASSQVAFPCPACDRADDAVQQVRLEGQTLDFYSYSALGLGQDEAPKVLGVPHACRYGAGVKDPNWQLGQCQAQLPLTLGRALKDPYNFQGQGQGGYRQVPTEKAGVKDWLLTGAFQYNTPDQLDSCCLNQGQCYQPSTACFRVAYLPLYLDSLGVDPHSPDLDVSWTLGAVLCRNEQCLAPSKPPCRWRKAGCLAPSVGDGRPEGRPGQQPGGVQHRQH",–,–,–,–,–,–,–,–,–,–,68%
"CRC22110v2: single-site variant L206A of CRC22110 (SEQ ID NO: 9) (protein, listed as Gallaecimonas xiamenensis) ADKPACRAVFDAGSSGTRLFLYVQQEGGWQPWPGAKLGALADPVRQHQGPKAMAALAADLANSLEALRQDGPTNSEGQPRWQGFDWQQACRLQSVSVLATAGMRLAEQQDPVASVALWQEVQQALAGLLGPAVAIDARTLTGFEEGFYAWLAARARLGRSDMGIVEMGGASSQVAFPCPACDRADDAVQQVRLEGQTLDFYSYSFAGLGQDEAPKVLGVPHACRYGAGVKDPNWQLGQCQAQLPLTLGRALKDPYNFQGQGQGGYRQVPTEKAGVKDWLLTGAFQYNTPDQLDSCCLNQGQCYQPSTACFRVAYLPLYLDSLGVDPHSPDLDVSWTLGAVLCRNEQCLAPSKPPCRWRKAGCLAPSVGDGRPEGRPGQQPGGVQHRQH",–,–,–,–,–,–,–,–,–,–,60%
"CRC22110v9: single-site variant F205L of CRC22110 (SEQ ID NO: 9) (protein, listed as Gallaecimonas xiamenensis) ADKPACRAVFDAGSSGTRLFLYVQQEGGWQPWPGAKLGALADPVRQHQGPKAMAALAADLANSLEALRQDGPTNSEGQPRWQGFDWQQACRLQSVSVLATAGMRLAEQQDPVASVALWQEVQQALAGLLGPAVAIDARTLTGFEEGFYAWLAARARLGRSDMGIVEMGGASSQVAFPCPACDRADDAVQQVRLEGQTLDFYSYSLLGLGQDEAPKVLGVPHACRYGAGVKDPNWQLGQCQAQLPLTLGRALKDPYNFQGQGQGGYRQVPTEKAGVKDWLLTGAFQYNTPDQLDSCCLNQGQCYQPSTACFRVAYLPLYLDSLGVDPHSPDLDVSWTLGAVLCRNEQCLAPSKPPCRWRKAGCLAPSVGDGRPEGRPGQQPGGVQHRQH",–,–,–,–,–,–,–,–,–,–,68%
"CRC22104: GDA1/CD39 family enzyme, accession TAL58835.1, SEQ ID NO:7 (protein, listed as Legionella sp.) IEQDPCQEKQCMIVVDAGSTGSRLHFYTYDTDETNSPINIEEIWSKRIKPGISHVEANRSSIDAYLVTLLAGTPHSNHVPVYFYATAGMRLLPAAKQKLIYQEIKFWFAQQNQWRLMDAKTIYGSQEALYDWLAVNHQLGTLQSVQTKSVGVMDMGGASVQIVFPVQNNPDLKNNTLAEFNLYGQHIRLAVRSFLGLGQTEMSHQFLNYAPCFANNYPLPDGFLGEGDALSCVEEVASLMNGVHSVNKEIQPLLAANPVNIWYAIGGLSFLADNSVIHFNNYQLTNEQLLQQVDSKICHQEWDVLDEQFPNEEYLYQFCLLSAYYYALMVEGYGLLPNETINYLPSSQNLDWTIGVVLYPRLTVLQ",0.05,0.10,0.0,0.0,0.0,0.3,0.8,0.9,1.0,1.0,–
"CRC25100: Acid phosphatase (Class A), internal database, SEQ ID NO:24 (protein, environmental sample) GENSGFLSPETSPNSLEILPPPPSEGSIAFLNDKANYDIGHTLKNEGRLAQAVSDANYKNLTDAFSKAFGETISEQNTPALYSLLQNVLQDSHDFAMRAAKDHYKRVRPFVIYKDHTCTPAEDTKMAKTGSYPSGHASFGWATALVLSEINPARETEILKRGYEFGQSRVICGAHWQSDVDSGRIMGAAVVASLHNNSDFISALAKAKEEFRKK",1.11,0.90,0.0,0.0,0.1,0.4,0.8,1.0,1.0,0.7,–
